Source: patent WO1997032021A1

Columns and labels:
[1] = target: HLA-A3 molecule on the T2-A3 cell line; assay: T2-A3 MHC stabilisation, w6/32 indirect immunofluorescence, flow cytometry; peptide at 1 uM
[2] = target: HLA-A3 molecule on the T2-A3 cell line; assay: T2-A3 MHC stabilisation, w6/32 indirect immunofluorescence, flow cytometry; peptide at 100 uM
[3] = target: HLA-A3 molecule on the T2-A3 cell line; assay: T2-A3 MHC stabilisation, w6/32 indirect immunofluorescence, flow cytometry; peptide at 10 uM

Expression of MHC (FR), fluorescence ratio [1]	Expression of MHC (FR), fluorescence ratio [2]	Expression of MHC (FR), fluorescence ratio [3]	Binder
1.8	1.3	1.3	DFWSGYLEY [HLA-A3 (5-13) peptide, based on CDR-H3 positions 5-13 of 105AD7]
1.2	1.8	1.8	VLYYDFWSGY [HLA-A3 (1-10) peptide, based on CDR-H3 positions 1-10 of 105AD7]
